Results reported in patent publication US20230416313A1 (NAVIGO PROTEINS, published 2023).

B1: CFH binding protein of SEQ ID NO: 20 (CID 209864) (designed binder)
chain: IAAKFDEAQQAAFYEILHLPNLTELQRNHFIQTLRDDPSVSLWVLGLAQLLNDSQAPKIAAKFDEAQQHAFYTILHLENLTEEQRNAFIQSLRDDPSVSLEVLGEAIKLNISQAPK
notes: Coupled to Praesto Epoxy 85 resin
B2: CFH binding protein of SEQ ID NO: 5 (CID 209447) (designed binder)
chain: NAAEADDAQVSAAMEIIMLPNLTLEQAHSFIESLYRDPSVSKEVLGEAQKLNDSQAPK
notes: as for B1

Target: T1, recombinant human complement factor H (CFH), isolated from moss (human, UniProt P08603 19-1231)
T1 construct: also called moss-FH; recombinant CFH
Assay: affinity chromatography, ligand on Praesto Epoxy 85, CFH supernatant bound in PBS pH 7.3, eluted at pH 3.5
Procedure: Coupling parameter. Proteins were purified to homogeneity and coupled to resin for AIC experiments. […] Variants were successfully coupled to epoxy-activated Praesto 85 resin.
AIC experiments. Capturing and Elution. For initial column performance tests, resins were packed into superformance 50-5 column housing. Phosphate buffered saline pH 7.3 (PBS) was used to equilibrate the column, followed by applying of 10 mL of recombinant CFH expression supernatant (titer: 0.47 mg/mL) at 6 min residence time. Resin was then washed with PBS for 15 column volumes. Elution was performed at pH 3.5 using 100 mM Citric acid buffer followed by stripping of residual bound CFH at pH 2.0. Elution at pH 3.5 and pH 2.0 was calculated by UV 280 nm absorption.

T1 sequence (P08603 19-1231 limits assumed): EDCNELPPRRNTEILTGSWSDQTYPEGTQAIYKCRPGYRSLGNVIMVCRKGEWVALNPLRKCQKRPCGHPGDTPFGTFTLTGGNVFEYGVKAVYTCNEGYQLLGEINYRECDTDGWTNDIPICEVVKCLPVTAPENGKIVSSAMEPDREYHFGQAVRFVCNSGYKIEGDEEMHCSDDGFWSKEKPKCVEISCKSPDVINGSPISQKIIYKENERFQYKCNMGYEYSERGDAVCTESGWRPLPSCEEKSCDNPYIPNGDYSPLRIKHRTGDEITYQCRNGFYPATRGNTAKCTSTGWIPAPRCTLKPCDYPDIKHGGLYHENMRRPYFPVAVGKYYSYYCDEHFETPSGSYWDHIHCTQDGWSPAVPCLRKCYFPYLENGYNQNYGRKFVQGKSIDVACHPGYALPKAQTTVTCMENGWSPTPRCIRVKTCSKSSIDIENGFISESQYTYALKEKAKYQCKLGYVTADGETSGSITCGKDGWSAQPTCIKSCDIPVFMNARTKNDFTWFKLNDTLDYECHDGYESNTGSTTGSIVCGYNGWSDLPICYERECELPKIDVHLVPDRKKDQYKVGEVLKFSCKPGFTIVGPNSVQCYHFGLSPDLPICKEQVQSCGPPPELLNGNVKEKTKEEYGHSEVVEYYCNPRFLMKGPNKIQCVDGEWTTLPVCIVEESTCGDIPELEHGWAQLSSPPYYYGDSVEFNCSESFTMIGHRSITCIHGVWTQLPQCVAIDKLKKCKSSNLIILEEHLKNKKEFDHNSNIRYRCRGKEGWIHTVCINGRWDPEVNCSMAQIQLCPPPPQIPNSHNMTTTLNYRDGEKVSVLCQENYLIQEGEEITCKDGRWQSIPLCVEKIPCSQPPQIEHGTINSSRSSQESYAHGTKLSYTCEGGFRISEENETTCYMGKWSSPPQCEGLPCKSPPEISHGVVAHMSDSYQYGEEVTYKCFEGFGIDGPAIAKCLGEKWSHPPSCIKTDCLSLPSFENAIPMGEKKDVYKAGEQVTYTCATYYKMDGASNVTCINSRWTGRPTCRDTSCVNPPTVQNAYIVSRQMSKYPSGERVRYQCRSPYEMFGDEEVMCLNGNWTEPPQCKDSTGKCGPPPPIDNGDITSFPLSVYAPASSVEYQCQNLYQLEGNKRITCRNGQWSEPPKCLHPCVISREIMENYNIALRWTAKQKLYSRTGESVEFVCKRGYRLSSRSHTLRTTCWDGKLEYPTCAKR

Row | Binder | Step Yield of CFH at pH 3.5 (percentage elution) [%]
1 | B1 | 96
2 | B2 | 91
